In patent US20200002421A1, “ANTI-B7-H3 ANTIBODIES AND ANTIBODY DRUG CONJUGATES” (AbbVie Inc., priority 2016, published 2020):

T1: huB7-H3 (Homo sapiens, UniProt Q5ZPR3)
T1 construct: His tag (6xHis) (C)
T1 sequence (Q5ZPR3 with tags, fused parts or gaps): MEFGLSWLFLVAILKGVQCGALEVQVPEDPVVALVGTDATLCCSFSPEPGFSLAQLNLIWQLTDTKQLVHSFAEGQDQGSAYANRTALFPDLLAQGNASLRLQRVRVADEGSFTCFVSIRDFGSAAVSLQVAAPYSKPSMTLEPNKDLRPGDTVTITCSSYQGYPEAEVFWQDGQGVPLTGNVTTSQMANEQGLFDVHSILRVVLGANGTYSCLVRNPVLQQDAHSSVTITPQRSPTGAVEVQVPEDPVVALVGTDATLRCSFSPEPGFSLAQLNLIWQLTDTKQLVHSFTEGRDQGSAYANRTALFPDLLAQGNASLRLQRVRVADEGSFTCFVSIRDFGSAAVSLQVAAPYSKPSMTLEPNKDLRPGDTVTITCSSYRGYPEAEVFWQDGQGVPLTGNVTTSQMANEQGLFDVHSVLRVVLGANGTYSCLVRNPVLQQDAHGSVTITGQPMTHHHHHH

T2: human B7-H3 (Homo sapiens, UniProt Q5ZPR3)
T2 construct: His tag (6xHis) (C)
T2 sequence (Q5ZPR3 with tags, fused parts or gaps): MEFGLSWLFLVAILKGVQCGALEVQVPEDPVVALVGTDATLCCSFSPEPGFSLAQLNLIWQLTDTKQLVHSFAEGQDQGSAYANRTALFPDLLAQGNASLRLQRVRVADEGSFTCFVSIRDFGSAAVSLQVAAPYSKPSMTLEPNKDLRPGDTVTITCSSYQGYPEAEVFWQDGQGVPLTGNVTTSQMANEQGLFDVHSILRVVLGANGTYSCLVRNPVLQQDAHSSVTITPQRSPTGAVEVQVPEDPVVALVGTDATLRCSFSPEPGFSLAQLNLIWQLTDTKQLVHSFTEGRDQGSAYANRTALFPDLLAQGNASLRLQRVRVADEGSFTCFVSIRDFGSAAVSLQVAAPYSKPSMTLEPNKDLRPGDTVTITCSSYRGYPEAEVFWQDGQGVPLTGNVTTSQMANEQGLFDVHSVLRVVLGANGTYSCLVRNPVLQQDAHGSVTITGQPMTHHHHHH

B1: Ab3: mouse hybridoma anti-B7-H3 monoclonal antibody, mouse IgG1/k (antibody, V domains shown)
VH: QVQLQQPGAELVKPGASVKLSCKASGYTFSSYWMHWVKQRPGQGLEWIGLIHPDSGSTNYNEMFKNKATLTVDRSSSTAYVQLSSLTSEDSAVYFCAGGGRLYFDYWGQGTTLTVSS
VL: DVVMTQTPLSLPVSLGDQASISCRSSQSLVHSNGDTYLRWYLQKPGQSPKLLIYKVSNRFSGVPDRFSGSGSGTDFTLKITRVEAEDLGVYFCSQSTHVPYTFGGGTKLEIK
B2: Ab4: mouse hybridoma anti-B7-H3 monoclonal antibody, mouse IgG2b/k (antibody, V domains shown)
VH: QVQLQQPGAELVKPGASVKLSCKASGYSFTSYWMHWVKQRPGQGLEWIGMIHPNSGSNNYNEKFKSKATLTVDKSSNTAYMQLSSLTSEDSAVYYCARRLGLHFDYWGQGTTLTVSS
VL: DIVMTQSQKFMSTPVGDRVSITCKASQNVGTAVAWYQQKPGQSPKLLIYSASNRYTGVPDRFTGSGSGTDFTLTISNMQSEDLADYFCQQYSSYPYTFGGGTKLEIK
B3: Ab5: mouse hybridoma anti-B7-H3 monoclonal antibody, mouse IgG1/k (antibody, V domains shown)
VH: QVQLQQPGDELVKPGASVKLSCKTSGYTFTTDWMHWVKQRPGQGLEWIGMIHPNSGTTNYNEKFKSKAALTVDKSSSTACMQLSSLTSEDSAVYYCARSYWKWYFDVWGTGTTVTVSS
VL: QIVLTQSPAIMSASLGEEITLTCSASSSVSYMHWYQQKSGTSPKLLIYSTSNLASGVPSRFSGSGSGTFYSLTISSVEAEDSADYYCHQWTSYMYTFGGGTKLEIK
B4: Ab18: mouse hybridoma anti-B7-H3 monoclonal antibody, mouse IgG1/k (antibody, V domains shown)
VH: QVQLQQSAAELARPGASVKMSCKASGYSFTSYTIHWVKQRPGQGLEWIGYINPNSRNTDYNQKFKDETTLTADRSSSTAYMQLISLTSEDSAVYYCARYSGSTPYWYFDVWGAGTTVTVSS
VL: QIVLTQSPAILSASPGEKVTMTCRASSSVSYMNWYQQKPGSSPKPWIYATSNLASGVPARFSVSVSGTSHSLTISRVEAEDAATYYCQQWSSNPLTFGAGTKLELK
B5: Ab10: mouse hybridoma anti-B7-H3 monoclonal antibody, mouse IgG2b/k (antibody, V domains shown)
VH: DVQLQESGPGLVKPSQSLSLTCTVTGYSITSDYAWNWIRQFPGNRLEWMGHINYSGITNYNPSLKSRISITRDTSKNQFFLQLYSVTTEDTATYFCARRSLFYYYGSSLYAMDYWGQGTSVTVSS
VL: DVVMTQSPFSLPVSLGDQASISCRSSQSLVHSNGNTYLHWYLQKPGQSPKLLIYKVSNRFSGVPDRFSGSGSGTDFTLKISRVEAEDLGVYFCSQSTHVPWTFGGGTKLEIK
B6: Ab14: mouse hybridoma anti-B7-H3 monoclonal antibody, mouse IgG1/k (antibody, V domains shown)
VH: EVKLVESGGGLVKPGGSLKLSCAASGFTFSSYGMSWVRQTPEKRLEWVATISGGGTNTYYPDSVEGRFTISRDNAKNFLYLQMSSLRSEDTALYYCARHYGSQTMDYWGQGTSVTVSS
VL: DIQMTQSPASLSASVGETVTITCRTSGNIHNYLTWYQQKQGKSPQLLVYNAKTLADGVPSRFSGSGSGTQFSLKINSLQPEDFGSYYCQHFWSIMWTFGGGTKLEIK
B7: Ab13: mouse hybridoma anti-B7-H3 monoclonal antibody, mouse IgG1/k (antibody, V domains shown)
VH: DVQLQESGPDLVKPSQSLSLTCTVTGYSITSGYSWHWIRQFPGNKLEWMGYIHSSGSTNYNPSLKSRISINRDTSKNQFFLQLNSVTTEDTATYYCAGYDDYFEYWGQGTTLTVSS
VL: DIVMTQSQKFMSTSVGDRVSVTCKASQNVGFNVAWYQQKPGQSPKALIYSASYRYSGVPDRFTGSGSGTDFTLTISNVQSEDLAEYFCQQYNSYPFTFGSGTKLEIK
B8: Ab16: mouse hybridoma anti-B7-H3 monoclonal antibody, mouse IgG1/k (antibody, V domains shown)
VH: EVKLLESGGGLVQPGGSLKLSCAASGFDFSRYWMSWVRQAPGKGLEWIGEINPDSSTINYTPSLKDKFIISRDNAKNTLYLQMSKVRSEDTALYYCARPGFGNYIYAMDYWGQGTSVTVSS
VL: DIQMTQTTSSLSASLGDRVTINCRASQDISNFLNWYQQKPDGTVKLLIYYTSRLYLGVPSRFSGSGSGTDYSLTISNLEQEDIATYFCQQGNTLPPTFGGGTKLEIK
B9: Ab2: mouse hybridoma anti-B7-H3 monoclonal antibody, mouse IgG1/k (antibody, V domains shown)
VH: QVQLQQPGAELVKPGASVKLSCKASGYTFTSYWMHWVKQRPGQGLEWIGMIHPDSGTTNYNEKFRSKATLTVDKSSSTAYMQLSSLTSEDSAVYYCAVYYGSTYWYFDVWGTGTTVTVSS
VL: DVVMTQTPLSLPVSLGDQAYISCRSSQSLVHINGNTYLHWYRQKPGQSPKLLIYKVSNRFSGVPDRFSGSGSGTDFTLKISRVEAEDLGVYFCSQSTHFPFTFGSGTKLEIK
B10: Ab6: mouse hybridoma anti-B7-H3 monoclonal antibody, mouse IgG1/k (antibody, V domains shown)
VH: QVQLQQSGAELMKPGASVKISCKATGYTFSRYWIEWVKQRPGHGLEWIGEILPGSGSTNYNEKFKGKATFTADTSSNTAYMQVSSLTSEDSAVHYCARRGYGYVPYALDYWGQGTSVTVSS
VL: EIQMTQTTSSLSASLGDRVTISCRASQDISNSLNWYQQKPDGTVNLLIYYTSRLYSGVPSRFSGSGSGTDYSLTISNLEQEDIATYFCQQGNTLPYTFGGGTKLEIK
B11: Ab17: mouse hybridoma anti-B7-H3 monoclonal antibody, mouse IgG2b/k (antibody, V domains shown)
VH: EVKLVESGGGLVQPGGSLKLSCAASGFTFSSYIMSWVRQTPEKRLEWVASIVSSNITYYPDSMKGRFTISRDNARNILYLQMSSLKSEDTAMYYCARSGTRAWFAYWGQGTLVTVSA
VL: DIVLTQSPASLAVSLGQRATISCRASKSVSTSAYSYMHWYQQKPGQPPKLLIYLASNLESGVPARFSGSGSGTDFTLNIHPVEEEDAATYYCQHSRELPYTFGGGTKLEIK

Assays:
huB7-H3 = molecular target: T1, huB7-H3; assay: Biacore T200 SPR binding kinetics, mAb capture; settings: Table 3
Protocol: The binding affinity of the purified anti-B7-H3 monoclonal antibodies was determined by surface […]. […] The binding kinetics were derived from SPR measurements using a Biacore T200 instrument and a mAb capture approach (as described in the materials and methods below).
Biacore T200 SPR instruments were used to measure the binding kinetics of human B7-H3 (4Ig-B7-H3 variant) (analyte) binding to various mAbs (ligands). The assay format was Fc-based capture via immobilized anti-mouse (Fc) (Pierce 31170) or immobilized anti-human (Fc) (Pierce 31125). A standard amine coupling protocol was employed to immobilize the capture reagents via primary amines to the carboxy-methyl (CM) dextran surface of CM5 sensorchips (Biacore); capture antibodies were coupled to a level of approximately 5000 RU. For binding kinetic measurements the assay buffer was HBS-EP+(Biacore): 10 mM Hepes, pH7.4, 150 mM NaCl, 3 mM EDTA, 0.05% polysorbate 20. During the assay, all measurements were referenced against the capture surface alone. Each assay cycle consisted of the following steps: 1) Capture of ligand to approximately 50 RU; 2) Analyte injection over both reference and test surface, 240 μL at 80 μL/min, after which the dissociation was monitored for 900 seconds at 80 μL/min; 3) Regeneration of capture surface with low pH glycine. For kinetic determinations analyte injections were 3-point, 9-fold dilution series of 900 nM, 100 nM and 11.11 nM, buffer only injections were included for secondary referencing. Data were processed and fit to a 1:1 binding model using Biacore T200 Evaluation Software to determine the binding kinetic rate constants, ka (on-rate) and kd (off-rate), and the equilibrium dissociation constant (affinity, KD).

human B7-H3 = molecular target: T2, human B7-H3; assay: Epitope grouping by pair-wise Biacore SPR binding; settings: simultaneous binding assay, FIG. 1
Text: Pair-wise binding assays performed on Biacore T200 SPR instruments were used to determine the relative epitope grouping for the murine anti-B7-H3 mAbs as described in the methods below. […] Epitope groups are represented as individual ovals, some of which overlap with each other. Antibodies in different epitope groups can bind to B7-H3 simultaneously and likely bind to different epitopes while antibodies within a given epitope group cannot bind to B7-H3 simultaneously and likely bind to overlapping epitopes. The grouping information was derived from a simultaneous binding assay as described in materials and methods. Ab3, Ab4, Ab5, Abl 1, Ab12, and Ab8 groupings were ambiguous
Pair-wise binding assays performed on Biacore T200 SPR instruments were used to determine the relative epitope grouping for a series of anti-B7-H3 mAbs. The assay format was Fc-based capture via immobilized anti-mouse (Fc) (Pierce 31170) or immobilized anti-human (Fc) (Pierce 31125). A standard amine coupling protocol was employed to immobilize the capture reagents via primary amines to the carboxy-methyl (CM) dextran surface of CM5 sensorchips (Biacore); capture antibodies were coupled to a level of approximately 2000 RU. Epitope grouping measurements were done at 12° C. (low temperature allows for grouping information on fast off-rate mAbs), the assay buffer was HBS-EP+(Biacore): 10 mM Hepes, pH7.4, 150 mM NaCl, 3 mM EDTA, 0.05% polysorbate 20. Each assay cycle consisted of the following steps in a four flowcell system: 1) separate test mAbs were captured in flowcells 2, 3 & 4 (flowcell 1 was reference, no test mAb); 2) all 4 flowcells were then blocked by injection with isotype control mAb or isotype mAb cocktail at 50 μg/mL; 3) all 4 flowcells were then injected with antigen or buffer only (buffer only is for double referencing, done for each mAb pair individually); 4) all 4 flowcells were then injected with 2nd test mAb at 10 μg/mL; 5) all 4 flowcells were then regenerated with glycine, pH1.5. The assay was done for each test mAb pair in reciprocal orientations. Simultaneous binding was evaluated examining the ratio of the 2nd test mAb response to the Ag response (RUmAb2/RUAg); if this ratio was equal to or greater than 0.2 the interaction was scored as a simultaneous binder. From this pair-wise binding assay data a “venn” style diagram was constructed manually to depict relative epitope groupings.

Molecule | huB7-H3 ka(1/Ms) (huB7-H3) | epitope grouping (human B7-H3)
B1 | 520000 M⁻¹ s⁻¹ | ambiguous
B2 | 690000 M⁻¹ s⁻¹ | ambiguous
B3 | 1.3e+06 M⁻¹ s⁻¹ | ambiguous
B4 | 210000 M⁻¹ s⁻¹ | 
B5 | 41000 M⁻¹ s⁻¹ | 
B6 | 110000 M⁻¹ s⁻¹ | 
B7 | 330000 M⁻¹ s⁻¹ | 
B8 | 140000 M⁻¹ s⁻¹ | 
B9 | 120000 M⁻¹ s⁻¹ | 
B10 | 12000 M⁻¹ s⁻¹ | 
B11 | 540000 M⁻¹ s⁻¹ | 
